Data set [1] deals with T1, D-2-hydroxyglutarate dehydrogenase (P. aeruginosa D2HGDH; EFAD-Zn^2+, EFAD-Ni^2+) (Pseudomonas aeruginosa, UniProt Q9I6H4).
T1 construct: gene PA0317; 6 His-tag at the tail of the gene (C-terminal), pET20b(+), E. coli Rosetta(DE3)pLysS; loaded with Zn2+ or Ni2+
T1 sequence (Q9I6H4 1-464): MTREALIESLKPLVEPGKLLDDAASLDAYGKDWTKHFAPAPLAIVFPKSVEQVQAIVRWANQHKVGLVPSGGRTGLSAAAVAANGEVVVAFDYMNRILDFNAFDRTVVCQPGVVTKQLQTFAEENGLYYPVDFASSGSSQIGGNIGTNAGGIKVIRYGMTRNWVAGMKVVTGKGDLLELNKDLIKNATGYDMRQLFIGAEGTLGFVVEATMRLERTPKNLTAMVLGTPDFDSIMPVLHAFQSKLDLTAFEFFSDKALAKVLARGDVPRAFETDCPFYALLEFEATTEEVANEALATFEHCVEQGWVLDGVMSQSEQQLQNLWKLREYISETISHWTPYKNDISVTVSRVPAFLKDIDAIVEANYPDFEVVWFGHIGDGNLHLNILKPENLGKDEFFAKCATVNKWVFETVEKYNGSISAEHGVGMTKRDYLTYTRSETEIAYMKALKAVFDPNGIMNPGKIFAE
The experiment in a line: UV-vis absorbance of purified enzyme with bound flavin. Format: binding. To be noted: co-purified oxidized FAD in EFAD-Ni2+ enzyme; maxima at 380 and 450 nm.

Substrate in data set [2]: O=C(O)CC[C@@H](O)C(=O)O
Kind of data set: PMS-driven oxygen consumption, Clark-type oxygen electrode, initial rates. Format: biochemical, Pseudomonas aeruginosa. The conditions noted are these: 1 mM PMS (saturating), 25 mM NaPO4, pH 7.4, 25 °C. The text has this: PMS-driven oxygen consumption, Clark-type oxygen electrode, initial rates on D-2-hydroxyglutarate dehydrogenase (P. aeruginosa D2HGDH; EFAD-Zn^2+, EFAD-Ni^2+)

Setting [3] is: Ni2+-substituted enzyme (EFAD-Ni2+), non-native metal.
[4] abbreviates: native Zn2+-loaded enzyme (EFAD-Zn2+).

Regarding `Cc1cc2nc3c(=O)[nH]c(=O)nc-3n(C[C@H](O)[C@H](O)[C@H](O)COP(=O)(O)OP(=O)(O)OC[C@H]3O[C@@H](n4cnc5c(N)ncnc54)[C@H](O)[C@@H]3O)c2cc1C` [FAD], the “UV-vis absorbance of purified enzyme with bound flavin” value in data set [1] was “enzyme was in a fully oxidized state with the bound FAD cofactor”.

B1: D-2-hydroxyglutarate dehydrogenase (P. aeruginosa D2HGDH; EFAD-Zn^2+, EFAD-Ni^2+) (Pseudomonas aeruginosa PAO1) (protein)
chain: T1 sequence (Q9I6H4 1-464)
notes: 6 His-tag at the tail of the gene (C-terminal), pET20b(+), E. coli Rosetta(DE3)pLysS; loaded with Zn2+ or Ni2+
As usually defined, the Km is the substrate concentration at which the rate is half of its maximum. For orientation: kcat means the number of substrate molecules converted per active site and unit of time at saturation. The term kcat/Km denotes the second-order rate constant that governs catalysis at low substrate concentration. Take B1: in data set [2] (setting [3]), the Km amounted to 140 ± 10 µM, the kcat was 18 ± 1 s⁻¹ and the kcat/Km amounted to 130000 ± 9000 M⁻¹ s⁻¹. Moreover, in data set [2] (setting [4]), the Km worked out at 150 ± 10 µM, the kcat turned out to be 30 ± 1 s⁻¹ and the kcat/Km is 205000 ± 10000 M⁻¹ s⁻¹.

Values taken from article PMC12756731, “Substitution of Zn^2+ with Ni^2+ Alters Kinetic Steps in D‑2-Hydroxyglutarate Dehydrogenase from Pseudomonas aeruginosa PAO1” (ACS Omega, 2025).
